US20260265359A1 (Hoffmann-La Roche, published 2026)
Read-outs that look alike come from different tables or passages of the source.

T1: recombinant human IL-6R (human, UniProt P08887 20-365, limits assumed)
T1 construct: Recombinant protein used in ELISA and as SPR analyte; also called hIL-6R
T1 sequence (looked up): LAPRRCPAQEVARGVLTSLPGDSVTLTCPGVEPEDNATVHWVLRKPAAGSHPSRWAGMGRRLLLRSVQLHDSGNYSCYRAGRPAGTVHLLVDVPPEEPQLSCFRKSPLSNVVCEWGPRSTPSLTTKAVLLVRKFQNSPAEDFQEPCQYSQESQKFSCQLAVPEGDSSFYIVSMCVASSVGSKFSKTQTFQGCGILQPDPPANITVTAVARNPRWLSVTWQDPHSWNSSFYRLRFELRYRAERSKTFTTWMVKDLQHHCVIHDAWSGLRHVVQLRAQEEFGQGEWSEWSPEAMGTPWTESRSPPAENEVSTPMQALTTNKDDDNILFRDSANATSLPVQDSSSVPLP

T2: human IL-6R overexpressed on engineered CHO-S cells (human, UniProt P08887 20-468)
T2 construct: whole, on cells; also called IL-6R-expressing CHO-S cells
T2 sequence (looked up): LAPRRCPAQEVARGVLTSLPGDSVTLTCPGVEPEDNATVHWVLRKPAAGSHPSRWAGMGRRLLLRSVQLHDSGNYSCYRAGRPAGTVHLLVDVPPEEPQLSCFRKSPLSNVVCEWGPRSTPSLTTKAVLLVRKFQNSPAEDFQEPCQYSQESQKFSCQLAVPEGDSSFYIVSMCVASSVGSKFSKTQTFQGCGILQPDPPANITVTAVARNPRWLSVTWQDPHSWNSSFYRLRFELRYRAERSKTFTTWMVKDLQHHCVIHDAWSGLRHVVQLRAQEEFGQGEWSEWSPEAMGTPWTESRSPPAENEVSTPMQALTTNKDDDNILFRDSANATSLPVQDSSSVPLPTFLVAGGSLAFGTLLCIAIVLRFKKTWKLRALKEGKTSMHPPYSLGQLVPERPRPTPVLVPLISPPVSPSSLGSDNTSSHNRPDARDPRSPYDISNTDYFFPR

T3: human Ang-1-Fc (human, UniProt Q15389 20-498, limits assumed)
T3 construct: not shown: Fc part
T3 sequence (looked up): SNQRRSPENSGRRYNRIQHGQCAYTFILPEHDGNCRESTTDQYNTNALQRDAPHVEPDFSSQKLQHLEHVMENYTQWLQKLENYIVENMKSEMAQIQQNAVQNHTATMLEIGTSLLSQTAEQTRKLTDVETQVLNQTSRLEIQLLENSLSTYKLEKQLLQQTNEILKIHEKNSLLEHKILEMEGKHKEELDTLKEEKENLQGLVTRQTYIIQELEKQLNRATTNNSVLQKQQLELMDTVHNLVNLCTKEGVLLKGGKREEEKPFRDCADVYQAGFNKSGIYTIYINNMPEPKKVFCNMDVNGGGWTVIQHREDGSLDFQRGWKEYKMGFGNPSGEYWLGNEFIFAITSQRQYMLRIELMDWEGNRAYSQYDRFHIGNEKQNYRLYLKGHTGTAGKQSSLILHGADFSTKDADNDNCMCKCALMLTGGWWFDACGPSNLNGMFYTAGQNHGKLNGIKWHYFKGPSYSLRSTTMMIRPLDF


What was measured:
recombinant human IL-6R [1] = molecular target: T1, recombinant human IL-6R; experiment: ELISA on plate-coated recombinant human IL-6R; anti-human IgG1-Fc-HRP, OD450
Experimental: (§1) After non-specific blocking using 1% BSA at 25° C. for 1 hour, a series of dilutions of test antibodies (“Abs”) were added into the coated wells and incubated at 25° C. for 1 hour. The bound Abs were detected using a secondary Ab (goat anti-human IgG1-Fc) conjugated with HRP followed by OD₄₅₀ reading.
(§2) The same ELISA procedure was performed with recombinant human IL-6R. […] Vobarilizumab is a single domain antibody against IL-6R. B781402 and B781405 are bispecific fusion antibodies that inhibit VEGF-A, B, PIGF and IL-6R.

recombinant human IL-6R [2] = molecular target: T1, recombinant human IL-6R; experiment: as above; remark: listed apart in the source
Experimental: as §1, §2

recombinant human IL-6R [3] = molecular target: T1, recombinant human IL-6R; experiment: SPR Biacore, 25 C; test antibody captured by anti-human IgG (Fc) on CM5 chip, target protein as analyte; 1:1 model
Experimental: (§3) SPR Biacore assay was performed at 25° C. with HBS-EP+ as a running buffer. The assay was performed by immobilization of the anti-human IgG (Fc) antibody onto the CM5 sensor chip surface and determined the level of ligand immobilization. […] Test antibodies were injected over the surface of Series S Sensor Chip CM5 as Capture. The analytes (target proteins) were diluted with running buffer into different concentrations and injected over the sensor surface as the association phase for affinity and kinetics measurements. The 1:1 binding model was used to measure the binding affinity and/or kinetics.

recombinant human IL-6R [4] = molecular target: T1, recombinant human IL-6R; experiment: as above; remark: listed apart in the source
Experimental: as §3

[5] = molecular target: T2, human IL-6R overexpressed on engineered …; experiment: FACS competition: antibody with biotinylated human IL-6 and CHO-S cells overexpressing human IL-6R; blocked: IL-6 binding to IL-6R
From the text: (§4) Vobarilizumab is a single domain antibody (also termed nanobody) against human IL-6R.

[6] = molecular target: T2, human IL-6R overexpressed on engineered …; experiment: as above; remark: listed apart in the source
From the text: as §4

human Ang-1-Fc [7] = molecular target: T3, human Ang-1-Fc; experiment: FACS competition: soluble human Tie-2 ECD (positive control) pre-incubated with 2 µg/ml human Ang-1-Fc, then HEK-293 cells overexpressing human Tie-2; blocked: Ang-1-Fc binding to cell-bound Tie-2
human Ang-1-Fc [8] = molecular target: T3, human Ang-1-Fc; experiment: FACS competition: soluble recombinant hTie-2 (positive control) pre-incubated with 2 µg/ml human Ang-1-Fc, then HEK-293 cells overexpressing human Tie-2; blocked: Ang-1-Fc binding to cell-bound Tie-2

EC50 (recombinant human IL-6R [1]) | EC50 (recombinant human IL-6R [2]) | Kd (recombinant human IL-6R [3]) | koff (recombinant human IL-6R [3]) | kon (recombinant human IL-6R [3]) | Kd (recombinant human IL-6R [4]) | koff (recombinant human IL-6R [4]) | kon (recombinant human IL-6R [4]) | IC50 [5] | IC50 [6] | IC50 (human Ang-1-Fc [7]) | IC50 (human Ang-1-Fc [8]) | Binder
0.05 nM | 0.028 nM | 1.1 nM | 0.00046 s⁻¹ | 420000 M⁻¹ s⁻¹ | 1.4 nM | 0.000521 s⁻¹ | 373000 M⁻¹ s⁻¹ | 0.756 nM | 1.82 nM |  |  | Tocilizumab (antibody, V domains shown, mAb against human IL-6R used as comparator) VH: QVQLQESGPGLVRPSQTLSLTCTVSGYSITSDHAWSWVRQPPGRGLEWIGYISYSGITTYNPSLKSRVTMLRDTSKNQFSLRLSSVTAADTAVYYCARSLARTTAMDYWGQGSLVTVSS VL: DIQMTQSPSSLSASVGDRVTITCRASQDISSYLNWYQQKPGKAPKLLIYYTSRLHSGVPSRFSGSGSGTDFTFTISSLQPEDIATYYCQQGNTLPYTFGQGTKVEIKR
1.39 nM | 1.36 nM |  |  |  |  |  |  |  |  |  |  | Vobarilizumab (VHH) VHH 1: EVQLVESGGGLVQPGGSLRLSCAASGSVFKINVMAWYRQAPGKGRELVAGIISGGSTSYADSVKGRFTISRDNAKNTLYLQMNSLRPEDTAVYYCAFITTESDYDLGRRYWGQGTLVTVSS VHH 2: QIILTQSPAIMSASLGEEITLTCSATSSVTYVHWYQQKSGTSPKLLIYGTSNLASGVPSRFSGSGSGTFYSLTVSSVEAEDAADYYCHQWNSYPHTFGGGTKLEIK
 |  |  |  |  |  |  |  |  |  | 42.9 nM | 53 nM | hTie2 (receptor, also called human Tie-2 ECD; recombinant hTie-2) AMDLILINSLPLVSDAETSLTCIASGWRPHEPITIGRDFEALMNQHQDPLEVTQDVTREWAKKVVWKREKASKINGAYFCEGRVRGEAIRIRTMKMRQQASFLPATLTMTVDKGDNVNISFKKVLIKEEDAVIYKNGSFIHSVPRHEVPDILEVHLPHAQPQDAGVYSARYIGGNLFTSAFTRLIVRRCEAQKWGPECNHLCTACMNNGVCHEDTGECICPPGFMGRTCEKACELHTFGRTCKERCSGQEGCKSYVFCLPDPYGCSCATGWKGLQCNEACHPGFYGPDCKLRCSCNNGEMCDRFQGCLCSPGWQGLQCEREGIQRMTPKIVDLPDHIEVNSGKFNPICKASGWPLPTNEEMTLVKPDGTVLHPKDFNHTDHFSVAIFTIHRILPPDSGVWVCSVNTVAGMVEKPFNISVKVLPKPLNAPNVIDTGHNFAVINISSEPYFGDGPIKSKKLLYKPVNHYEAWQHIQVTNEIVTLNYLEPRTEYELCVQLVRRGEGGEGHPGPVRRFTTASIGLPPPRGLNLLPKSQTTLNLTWQPIFPSSEDDFYVEVERRSVQKSDQQNIKVPGNLTSVLLNNLHPREQYVVRARVNTKAQGEWSEDLTAWTLSDILPPQPENIKISNITHSSAVISWTILDGYSISSITIRYKVQGKNEDQHVDVKIKNATITQYQLKGLEPETAYQVDIFAENNIGSSNPAFSHELVTLPESQAPADLGGGKMLL
